Results published in the DeepSol protein solubility set.

Assay: soluble on expression in E. coli; label from the status in PepcDB or PDB records

Sequence | soluble on expression in E. coli
EAPFTLKVNTLPLNFDKAEHHRKFQIHINVSYIGERPNSNMVIVDVKMVSGFIPVKPSVKKLQDQSNIQRTEVNTNHVLIYIEKLTNQTMGFSFAVEQDIPVKNLKPAPVKVYDYYETDEFAIEEYSAPFSSDS | soluble
MSLGPVGMSGGMDINSMVSKIVDAERVPKQQRIDNDRTTINASISAYGRLRESLDTMKNLMANFRQEKAFAVRTVETTDDNIVSATATTDAIAGKYAIDVLQLAQSHK | not soluble
MGSDKIHHHHHHMEAADASRSNGSSPEARDARSPSGPSGSLENGTKADGKDAKTTNGHGGEAAEGKSLGSALKPGEGRSALFAGNEWRRPIIQFVESGDDKNSNYFSMDSMEGKRSPYAGLQLGAAKKPPVTFAEKGELRKSIFSESRKPTVSIMEPGETRRNSYPRADTGLFSRSKSGSEEVLCDSCIGNKQKAVKSCLVCQASFCELHLKPHLEGAAFRDHQLLEPIRDFEARKCPVHGKTMELFCQTDQTCICYLCMFQEHKNHSTVTVEEAKAEKETELSLQKEQLQLKIIEIEDEAEKWQKEKDRIKSFTTNEKAILEQNFRDLVRDLEKQKEEVRAALEQREQDAVDQVKVIMDALDERAKVLHEDKQTREQLHSISDSVLFLQEFGALMSNYSLPPPLPTYHVLLEGEGLGQSLGNFKDDLLNVCMRHVEKMCKADLSRNFIERNHMENGGDHRYVNNYTNSFGGEWSAPDTMKRYSMYLTPKGGVRTSYQPSSPGRFTKETTQKNFNNLYGTKGNYTSRVWEYSSSIQNSDNDLPVVQGSSSFSLKGYPSLMRSQSPKAQPQTWKSGKQTMLSHYRPFYVNKGNGIGSNEAP | not soluble
MGSDKIHHHHHHMVAITSCSDDSDGIPGWPWNDNSTEGPENPDVTEIKPRYVWIDAAANFPDYANNKENISTDMVKVKNAGFTDIIVDVRPTTGDVLFNTTAVDQVKRMDVWGSSGYVYYERTETWDYLQAFIDAARSQGLKVHASVNTFVGGYLCPYNLGSDGILFRDDSKKEWASVANLADGLTNTMDLLNDETDYGAKFLNPANDDVQNFVLQLLGDLAKYDLDGIILDRCRYDDYGLESDFSAVSKQKFEEYIGETVAHFPEDIMAPGTDEIPSDQPAYFKKWLEFRVKVIHDFIVKAREKVKSVNSEINFGVYVGAWYSSYYTSGVNWASPKYDTSAYYPKWATADYKNYGYADHLDYIFLGAYASVDKIYGSGEWTMEGFCKNGRELLKGDVPFSGGPDIGNGTGWTNGGQAAKIPDAIDACINNSDGFFAFDLCHIKMYDYWNAFKTGFDNYLESVQK | not soluble
GSHMAPADYFRVLVQQFEVQLQQYRQQIEELENHLATQANNSHITPQDLSMAMQKIYQTFVALAAQLQSIHENVKVLKEQYLSYRKMFLGDAG | soluble
MSLDLMTKLKIYNGEEIVEKASIKKIEREELEEECRQKEGMTGVSTRFIIKAINNAICESNCSCINPIDVINSLITAVKEKDLCEEVEDKYISFLEDVVRKEYNKILYKEITKFFIESFNSQGEALFNNYLDHAEAYVNKVYLKDNITGENLDPDEEFMREIEEEIGVTENSSKGFRKDVVAYILYLIRKGEEINCNCYKPLKEAIERKLISSSREISRIINPSKIRNKAQDEKYKFIVEKLKNNGYCDTCAFYTLRYAANNFWRDEGHHHHHH | not soluble
MQVLVRDNNVDQALRALKKKMQREGIFREMKMRGYYEKPSEKRAREKAEAVRRTRKLARKRAQREGLISNGRGSPLKLEHHHHHH | not soluble
MSLNEDWPTIAFLVPMDRNHEYGRNYVSSLRKAAEEHHVNAFVMNSNYDASVQASQMKIAIAKKVDGIVIWPALYGAEQPMLIQAQRAGIPVDISNSQPPEDLDTSLYHAFTGPNDQRIGELQGKELAKLLGSKGTYVYIGGTPGNAAAINRQIGLEREMANHPDVKLLGSQPGNFDKNQAQTAASALISRFGNQIDALVTPDDIIASGAAQALDAAGMAGQVKLLGHNYAPVARSLLENGSMSTTLFQSPCWDSTHALTTMMDVLAGKDVPPVSYMPLPVVTKDNLDEFTPNGCLPEGYSEPATNEGHHHHHH | soluble
MKESAASVAVRPQLREVFERFPADAHRTIEDEIHEMMKCYAFDDAIFLAELHYETDKSNNSESLLLYADCLYRANKKEECYGLLSSVKLSGARLFYLLARVSYDLNKIDDCRGALFEHDDGVIRKDILEEPRVASHANLLHAQMLCDESYMDLALESCQKSLDENILLWSAIITYLRFGGHDLAHTFEKHHRKSNGLYLDSPASSLKSETPSPNVPGPSSSSAASTAEPSRLESSVRRSTRGTIASANRETRNTTSNITPRQSTPGSTPSRINPTAPRKSSRISEMTTRRTESSVTGSRSSLFTEPERPHTRATHSSRNRANAALNSDTENSNASNTRTRSGIASVTRGSSSSQRTNPVRTSIRIADAAAAANKTAKTLSQRRRNEKQPLVSRNSNLARSLSGSTNSVASTASERPSEDEVSQINPPLPSVASSLNNDEPMDIVDGVYDPEYKKLFDVYQHIALIEESISTYNWRSADALFAKLDRDIILNTSMVRLQLGRACFEQSEYRECRNILDDLHKRRKWKVDGTELLSTSMWHLQDTHALSALSQILTTESRERPQSWCAAGNCFSLQRQHTQAIECMERAIQLDKRFAYAYTLLGHELIVQDELDKAAGSFRSALLLSPRDYRAWYGLGLVHLKKEQNLTALTNIQKAVNINPTNRAMLCTLSQIEQQRGQIDTALVLIDRALTLNPLDVACRFNRSRLLFEANRNEECLVELDKLKASSPDEAFIFHLLARVHRRMGNTHLALLNYSWAAELDPRGEQNITDSNVINREEYEDDEYGSPV | not soluble
MGSDKIHHHHHHMKKYMRTCSPRLAKEKYCTGCMACSDACTHDAIKIVEKNCMPFVKVDTHKCMNCHLCEKACPIITPVKKNRAEEMNVYGGWANDEQTRIDAASGGGFSGLAQSFFHLHKEDKVAVIGATLANNRVYHQLIEQEKDIVLLTNSKYIQSDTQGIYKEVIERLKTGYWILFSGCPCQIAGLYGFLGKKRDSERLITIEVVCHGIASYEALDLHLKYYNSSRIYRFRDKRHGTQDWKQSQCTTIEQNGEEIKLKRKDDMFYAIYAGWMLDRKSCSNCQFAEINRVADITIADFWGLQVPDYYKQGVSLIIANNNKADTMIKAADAIYTFKESLRTAINGNPHLFTGYKLIQFHPIVMWPDFFRKILPKRIRFKILTNRMPYKLFWALYKLGTIYLVKYQKKQLISKFQKDDNLLKLLNNANRGGGKMA | not soluble
SRVFLDHNALPDTLKVTYDSFCSNGVTHRNQPRGDCDGVQINVPITFQVKVTATECIQEQSFVIRALGFTDIVTVQVLPQCECRCRDQSRDRSLCHGKGFLECGICRCDTGYIGKNCEHH | soluble
MGSDKIHHHHHHMINSGNGTDYESMRFDRRGQAEAFDAIGDRYDEAFPHKEGQVSVGEWLIGSLPPRSRVLDLGCGTGMPTARQLTDAGFDVVGVDLSGGMVELARAYVPGATFHQLDVADLRPGGSRDLGRFDAVAAFFSLLMLPRPEIPLALLTVRHLLVPGGLFALAMVEADVDDFSIPFVGHTIRVSGYLREDLHTVIETAGFEIVKEFSYTYAPSVADVPPEEQVFLCCRRRG | not soluble
MEEIILVFPKEELEVRAMEFKKEFLDCGERIINGSFKLDYVDDYAEWLKIIRNNLKKETVNPKWVVSTTFFAVRKSDNKIIGIVNLRHYLNDFYKNSGHIGYSVRPSERRKGYASEILRQILEYAREKGLTEVCVVCKKENEASRKTILKNGGILSRTFKDEGEEHEAFYINTKKH | not soluble
MFCTSEAAVDMDSGRGDIRRLKDGEILKYTSGIFSSKWKKMYAVLFSDSRLVWFENRGDRKPKGSVLLKDVIPYICVGLMTDRMPVKRPNVPEGNSVHHLVGIGMNPKADPCHWILFSSDSDIESWFTEITKTLPKPANPPPNAPQQGPGAQPPQQQNNGGYVPPTVYPSAPPPVQPGYNPRPASGQSYPSGPQVPPAYGQYPQPGYPQPAGVPTSSHTTVIVRDGGYGGGGYGGYGGGGGGFGSTGLGFGSGILAGSLLGYGLGSMWGGHHSYGGWGGGYGGGGYGMAGGYYSDNDTTVTNNYYNYGDNDNNGGNNHSSSSNAITDAPGNAGDQSQQQSDNNYGNANQDSYDQGNDYGNDYGNAGYDSGDFGGGDYGGGGYDSGDFGGGDFGGGDFGGGDFGGGDY | not soluble
